In patent publication US20240010753A1 (EPIMAB BIOTHERAPEUTICS HK, published 2024):
Numbering of substitutions follows the chain as printed.

Tests used:
human ROR1 on cells [1] = molecular target: T1, human ROR1 on cells (human, UniProt Q01973 30-937); test: flow cytometry on MDA-MB-231 cells, MFI
T1 construct: whole, on cells; the cell line is named under assay; also called CHO-ROR1; CHOK1-ROR1

human ROR1 on cells [2] = molecular target: T1, human ROR1 on cells; test: flow cytometry on NCI-H1975 cells, MFI
Method: (§1) Briefly, 5×10⁵ cells were seeded into each well of a 96-well plate. Cells were centrifuged at 400 g for 5 minutes and supernatants were discarded. For each well, 100 IA of serially diluted antibodies were then added and mixed with the cells. After 40 minutes of incubation at 4° C., plates were washed several times to remove excess antibodies. Secondary fluorochrome-conjugated goat anti-human IgG antibody was then added and incubated with cells at room temperature for 20 minutes. After another round of centrifugation and a washing step, cells were resuspended in FACS buffer for reading on a CytoFLEX Flow Cytometer (Beckman Coulter). Median Fluorescence Intensity (MFI) readouts were plotted against antibody concentration and analyzed with GraphPad Prism 6.0 software.

human ROR1 on cells [3] = molecular target: T1, human ROR1 on cells; test: flow cytometry on RPMI-8226 cells, MFI
Method: as §1

human ROR1 on cells [4] = molecular target: T1, human ROR1 on cells; test: flow cytometry on A549 cells, MFI
Method: as §1

human ROR1 on cells [5] = molecular target: T1, human ROR1 on cells; test: flow cytometry on MDA-MB-231 cells, MFI; remark: listed apart in the source
Method: as §1

human ROR1 on cells [6] = molecular target: T1, human ROR1 on cells; test: flow cytometry on RPMI8226 cells, internalization assay, 4°C control (coincides with 37°C + PAO)
Method: The binding internalization of humanized anti-ROR1 antibodies were characterized with ROR1-expressing myeloma cell line RPMI8226 with a method similar to that described previously in Example 1.4. Briefly, cells were harvested and resuspended in FACS buffer at density of 3 million per mL. Diluted antibodies were added to the tubes and incubated for 30 min at 4° C. After the first incubation, cells were washed three times with cold PBS to remove unbound antibody. Then, the cells of each antibody treatment were split into three groups, 4° C., 37° C. and 37° C.+PAO, respectively. Cells in the 37° C. […] After another round of centrifugation and washing step, cells were resuspended in FACS buffer for reading on a CytoFLEX Flow Cytometer (Beckman Coulter). An irrelevant mouse IgG control (MFIbackground) was calculated and used for background calibration. The difference between the MFI readout of “control” and that of “internalization” (ΔMFI) reflects the internalization of ROR1 antibodies, and such difference in relative to calibrated MFI of “control” reflects percentage of antibody internalization, which is calculated as follows and is summarized below in Table 15. […] The calculated antibody internalization percentages of HuROR-mAb004-1 and FIT1007-12B-17 were consistent with the results shown in Example 1.4, Table 4.

human CD3 on cells = molecular target: T2, human CD3 on cells (human, UniProt P07766 23-207; P04234 22-171; P09693 23-182; P20963 22-164); test: flow cytometry on CHO-CD3-TCR cells, MFI
T2 construct: the cell line is named under assay; also called human TCR/CD3 complex; CHO-CD3-TCR
Method: as §1

[7] = molecular target: T3, recombinant human ROR1-ECD protein (human, UniProt Q01973 30-406); test: BLI (Octet RED96), antibody captured on anti-mouse IgG Fc sensors, ROR1-ECD in solution, 25 C, 1:1 fit
T3 construct: also called human ROR1 extracellular domain
Method: Briefly, Anti-Mouse IgG Fc Capture (AMC) Biosensors were used to capture purified anti-ROR1 antibodies. Sensors were then dipped into solutions containing recombinant human ROR1-ECD protein to detect target protein binding to the captured antibodies. Kinetics constants were determined by processing and fitting data to a 1:1 binding model using Fortebio analysis software. Shown below in Table 2 are the results obtained for ROR1-mAb004 in comparison with two previously described anti-ROR1 monoclonal antibodies, ROR1-Tab1 is clone R12 as described in WO2014167022, and ROR1-Tab2 is clone D10 as described in WO2012097313.

[8] = molecular target: T3, recombinant human ROR1-ECD protein; test: ELISA, ROR1-ECD coated at 1 ug/mL
Method: The binding specificity and potency of anti-ROR1 antibodies were characterized by protein ELISA and flow cytometry analysis of cell surface binding. Briefly, binding properties of the anti-ROR1 antibodies were measured with ELISA as follows: recombinant ROR1-ECD protein was coated at 1 μg/mL on 96-well plates at 4° C. overnight. Plates were washed once with washing buffer (PBS containing 0.05% Tween 20) and blocked with ELISA blocking buffer (1% BSA in PBS containing 0.05% Tween 20) at room temperature for 2 hours. Anti-ROR1 antibodies were then added and incubated at 37° C. for 1 hour. Plates were washed three times with washing buffer. HRP labeled anti-mouse IgG secondary antibody (Sigma, Cat. #A0168) was added and the plates were incubated at 37° C. for 30 minutes then washed 5 times in washing buffer. 100 μl of tetramethylbenzidine (TMB) chromogenic solution was added to each well. Following color development, the reaction was stopped with 1 Normal HCl and absorbance at 450 nm was measured on a Varioskan™ LUX microplate reader (ThermoFisher Scientific). Binding signals were plotted against antibody concentration with GraphPad Prism 6.0 software and EC50s were calculated accordingly.

[9] = molecular target: T3, recombinant human ROR1-ECD protein; test: competition ELISA: biotinylated ROR1-ECD pre-mixed with the row's antibody; competitor coated on the plate: ROR1-Tab1
Method: (§2) The binding epitope of ROR1 antibodies were identified with a competition ELISA. Briefly, 96 well plates were coated with 1 ug/mL purified antibodies and incubated overnight at 4° C. After washing with PBS containing 0.05% Tween 20, plates were blocked with blocking buffer (PBS containing 0.05% Tween 20 and 2% BSA) at 37° C. for 2 hours. Biotinylated human ROR1-ECD protein pre-mixed with ROR1 antibody (sample) or irrelevant mouse IgG (baseline) was added into plate wells and incubated at 37° C. for 1 hour before being washed 3 times. Streptavidin-HRP (1:5000 dilution) was then added into each well and incubated at 37° C. for 1 hour before being washed another 3 times. Tetramethylbenzidine (TMB) chromogenic solution was added for color development for 5 minutes then the reaction was stopped with 1M HCl. Absorbance at 450 nm (OD₄₅₀) was measured on a microplate reader. The OD450baseline represents the level of human ROR1-ECD binding to ROR1 antibodies at absence of competition, while the difference between OD450baseline and OD450ₛₐₘₚₗₑ reflects the competition between the ROR1 antibody coated on plate and the antibody in solution. The inhibition percentage was calculated by following equation: […]

[10] = molecular target: T3, recombinant human ROR1-ECD protein; test: competition ELISA: biotinylated ROR1-ECD pre-mixed with the row's antibody; competitor coated on the plate: ROR1-Tab2
Method: as §2

human ROR1 on cells [11] = molecular target: T1, human ROR1 on cells; test: flow cytometry on RPMI-8226 myeloma cells
Method: as §1, with “Cell binding activity of anti-ROR1 antibodies were measured with human ROR1 transfected CHO cell line (CHO-ROR1) and ROR1-expressing myeloma cell line (RPMI8226). Briefly,” for “Briefly,”, “μl” for “IA”, “minutes” for “minutes of”, “anti-mouse” for “anti-human”, “software. The results shown in FIGS. 2A-B illustrate the binding activities of anti-ROR1 monoclonal antibodies ROR1-mAb004 and ROR1-Tab1 to ROR1 expressing cells. An irrelevant mIgG1 was used as negative control.” for “software.”

human ROR1 on cells [12] = molecular target: T1, human ROR1 on cells; test: flow cytometry on human ROR1 transfected CHO cells (CHOK1-ROR1)
Method: as §1, with “Cell binding activity of anti-ROR1 antibodies were measured with human ROR1 transfected CHO cell line (CHO-ROR1) and ROR1-expressing myeloma cell line (RPMI8226). Briefly,” for “Briefly,”, “μl” for “IA”, “minutes” for “minutes of”, “anti-mouse” for “anti-human”, “software. The results shown in FIGS. 2A-B illustrate the binding activities of anti-ROR1 monoclonal antibodies ROR1-mAb004 and ROR1-Tab1 to ROR1 expressing cells. An irrelevant mIgG1 was used as negative control.” for “software.”

[13] = molecular target: T3, recombinant human ROR1-ECD protein; test: competition ELISA: biotinylated ROR1-ECD pre-mixed with the row's antibody; competitor coated on the plate: ROR1-mAb004
Method: as §2

T3 sequence (Q01973 30-406): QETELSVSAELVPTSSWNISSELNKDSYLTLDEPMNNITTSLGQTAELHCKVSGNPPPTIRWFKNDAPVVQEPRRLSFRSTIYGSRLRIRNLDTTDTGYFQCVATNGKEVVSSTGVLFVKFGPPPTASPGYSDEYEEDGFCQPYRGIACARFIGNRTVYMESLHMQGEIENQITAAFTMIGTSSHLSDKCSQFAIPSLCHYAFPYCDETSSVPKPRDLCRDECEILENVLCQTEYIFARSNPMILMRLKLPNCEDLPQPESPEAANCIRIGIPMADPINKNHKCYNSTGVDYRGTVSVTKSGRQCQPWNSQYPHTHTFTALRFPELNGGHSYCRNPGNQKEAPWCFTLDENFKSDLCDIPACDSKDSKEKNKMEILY
T1 sequence (Q01973 30-937): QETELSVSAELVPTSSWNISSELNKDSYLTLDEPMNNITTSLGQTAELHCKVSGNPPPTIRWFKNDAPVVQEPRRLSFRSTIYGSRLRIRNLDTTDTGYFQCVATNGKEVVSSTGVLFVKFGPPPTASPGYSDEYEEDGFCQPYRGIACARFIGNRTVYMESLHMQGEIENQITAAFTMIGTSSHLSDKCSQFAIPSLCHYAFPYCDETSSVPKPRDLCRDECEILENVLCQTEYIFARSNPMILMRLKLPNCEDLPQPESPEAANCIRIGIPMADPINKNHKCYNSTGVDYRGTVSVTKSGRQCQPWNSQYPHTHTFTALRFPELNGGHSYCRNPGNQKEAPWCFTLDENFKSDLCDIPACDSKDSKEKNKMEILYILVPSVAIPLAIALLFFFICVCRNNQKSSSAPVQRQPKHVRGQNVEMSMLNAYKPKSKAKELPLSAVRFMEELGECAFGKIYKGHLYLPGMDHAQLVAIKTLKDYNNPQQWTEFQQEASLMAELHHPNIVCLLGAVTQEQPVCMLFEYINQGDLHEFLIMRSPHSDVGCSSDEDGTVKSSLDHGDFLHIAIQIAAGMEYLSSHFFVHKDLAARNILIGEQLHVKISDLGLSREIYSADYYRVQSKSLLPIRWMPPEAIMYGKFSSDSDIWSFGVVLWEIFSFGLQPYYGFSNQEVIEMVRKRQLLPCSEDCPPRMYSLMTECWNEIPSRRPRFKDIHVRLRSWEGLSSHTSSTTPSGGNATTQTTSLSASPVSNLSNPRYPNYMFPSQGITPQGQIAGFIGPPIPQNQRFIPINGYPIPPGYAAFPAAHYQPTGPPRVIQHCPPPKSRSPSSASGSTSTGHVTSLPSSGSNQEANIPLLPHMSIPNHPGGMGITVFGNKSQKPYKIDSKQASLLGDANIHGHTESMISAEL
T2 sequence (P07766 23-207 limits assumed, chain 1 of 4): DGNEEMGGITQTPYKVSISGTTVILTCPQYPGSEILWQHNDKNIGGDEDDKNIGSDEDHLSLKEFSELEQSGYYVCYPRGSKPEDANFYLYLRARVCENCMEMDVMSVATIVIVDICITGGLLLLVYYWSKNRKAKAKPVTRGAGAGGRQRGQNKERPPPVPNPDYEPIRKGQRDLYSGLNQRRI
T2 sequence (P04234 22-171 limits assumed, chain 2 of 4): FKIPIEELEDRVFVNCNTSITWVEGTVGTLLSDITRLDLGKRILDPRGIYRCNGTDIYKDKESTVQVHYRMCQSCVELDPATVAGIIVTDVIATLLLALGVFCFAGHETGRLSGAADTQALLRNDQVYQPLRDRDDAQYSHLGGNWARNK
T2 sequence (P09693 23-182 limits assumed, chain 3 of 4): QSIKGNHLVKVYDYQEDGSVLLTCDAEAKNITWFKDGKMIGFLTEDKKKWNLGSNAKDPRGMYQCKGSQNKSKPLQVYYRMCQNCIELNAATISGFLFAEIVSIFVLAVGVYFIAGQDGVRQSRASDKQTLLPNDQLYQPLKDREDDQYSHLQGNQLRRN
T2 sequence (P20963 22-164 limits assumed, chain 4 of 4): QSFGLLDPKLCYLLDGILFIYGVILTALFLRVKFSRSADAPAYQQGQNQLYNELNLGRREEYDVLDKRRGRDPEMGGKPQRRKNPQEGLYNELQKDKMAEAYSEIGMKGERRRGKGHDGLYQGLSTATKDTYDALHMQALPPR

B1: D10 x CD3 FIT-Ig (bispecific antibody, human IgG1, kappa, L234A L235A)
chain 1: not shown
chain 2: QVQLKESGPGLVAPSQTLSITCTVSGFSLTSYGVHWVRQPPGKGLEWLGVIWAGGFTNYNSALKSRLSISKDNSKSQVLLKMTSLQTDDTAMYYCARRGSSYSMDYWGQGTSVTVSSASTKGPSVFPLAPSSKSTSGGTAALGCLVKDYFPEPVTVSWNSGALTSGVHTFPAVLQSSGLYSLSSVVTVPSSSLGTQTYICNVNHKPSNTKVDKKVEPKSC
chain 3: not shown
EC50 (read off the curve) (human ROR1 on cells [1]): ~0.5 nM

B2: HuROR1-mAb004-1 (antibody, V domains shown)
VH: EVQLVQSGAEVKKPGSSVKVSCKASGYTFSRSWMNWVRQAPGQGLEWMGRIYPGNADIKYNANFKGRVTITADKSTSTAYMELSSLRSEDTAVYYCAHIYYDFYYALDYWGQGTTVTVSS
VL: DIQMTQSPSSLSASVGDRVTITCKASQDINKYITWYQQKPGKAPKLLIYYTSTLQPGVPSRFSGSGSGTDYTFTISSLQPEDIATYYCLQYDSLLWTFGGGTKVEIK
notes: only the variable domains are tied to it; also called HuROR-mAb004-1; parental anti-ROR1 monoclonal IgG1 antibody
EC50 (read off the curve) (human ROR1 on cells [2]): ~2 nM
EC50 (read off the curve) (human ROR1 on cells [3]): ~1 nM
EC50 (read off the curve) (human ROR1 on cells [4]): ~1 nM
EC50 (read off the curve) (human ROR1 on cells [5]): ~2 nM
EC50 (read off the curve) (human ROR1 on cells [6]): ~1 nM

B3: R12 x CD3 FIT-Ig (bispecific antibody, human IgG1, kappa, lambda, L234A L235A)
chain 1: not shown
chain 2: QEQLVESGGRLVTPGGSLTLSCKASGFDFSAYYMSWVRQAPGKGLEWIATIYPSSGKTYYATWVNGRFTISSDNAQNTVDLQMNSLTAADRATYFCARDSYADDGALFNIWGPGTLVTISSASTKGPSVFPLAPSSKSTSGGTAALGCLVKDYFPEPVTVSWNSGALTSGVHTFPAVLQSSGLYSLSSVVTVPSSSLGTQTYICNVNHKPSNTKVDKKVEPKSC
chain 3: not shown
EC50 (read off the curve) (human ROR1 on cells [1]): ~0.4 nM

B4: HuEM0006-01-24 (antibody, V domains shown)
VH: EVQLVQSGAEVKKPGASVKVSCKASGFSFTNYYVHWMRQAPGQGLEWMGWISPGSDNTKYNEKFKGRVTMTRDTSISTAYMELSRLRSDDTAVYYCARDDYGNYYFDYWGQGTTVTVSS
VL: DIVMTQSPDSLAVSLGERATINCKSSQSLLNARTRKNYLAWYQQKPGQPPKLLIYWASTRESGVPDRFSGSGSGTDFTLTISSLQAEDVAVYYCKQSYILRTFGGGTKVEIK
notes: only the variable domains are tied to it; also called HuEM1006-01-24
EC50 (read off the curve) (human CD3 on cells): ~0.3 nM

B5: HuEM0006-01-27 (antibody, V domains shown)
VH: B4 VH with M48I, M70L, R72A
VL: B4 VL
notes: only the variable domains are tied to it; also called HuEM1006-01-27
EC50 (read off the curve) (human CD3 on cells): ~2 nM

B6: ROR1-mAb004 (antibody, V domains shown)
VH: QVQLQQSGPELVKPGASVKISCKASGYAFSRSWMNWVKQRPEKGLEWIGRIYPGNGDIKYNGNFKGKATLTADKSSSTAYMQLSSLTSEDSAVYFCAHIYYDFYYALDYWGQGTSVTVSS
VL: DIQLTQSPSSLSASLGGKVTITCKASQDINKYITWYQHKPGKGPRLLIHYTSTLQPGIPSRFSGSGSGRDYSFSISNLEPEDIATYYCLQYDSLLWTFGGGTKLEIK
notes: Mouse hybridoma monoclonal antibody; captured and detected through mouse IgG Fc
Kd [7]: 18.5 nM
koff [7]: 0.00171 s⁻¹
kon [7]: 92500 M⁻¹ s⁻¹
EC50 [8]: 0.022 nM
Inhibition % [9]: -22%
Inhibition % [10]: 92%
EC50 (human ROR1 on cells [11]): 0.983 nM
EC50 (human ROR1 on cells [12]): 2.31 nM
Inhibition % [13]: 93%

B7: ROR1-Tab1 (antibody, V domains shown)
VH: QEQLVESGGRLVTPGGSLTLSCKASGFDFSAYYMSWVRQAPGKGLEWIATIYPSSGKTYYATWVNGRFTISSDNAQNTVDLQMNSLTAADRATYFCARDSYADDGALFNIWGPGTLVTISS
VL: ELVLTQSPSVSAALGSPAKITCTLSSAHKTDTIDWYQQLQGEAPRYLMQVQSDGSYTKRPGVPDRFSGSSSGADRYLIIPSVQADDEADYYCGADYIGGYVFGGGTQLTVTG
notes: also called clone R12; R12 as described in WO2014167022
Kd [7]: 1.28 nM
koff [7]: 0.00066 s⁻¹
kon [7]: 517000 M⁻¹ s⁻¹
EC50 [8]: 0.025 nM
Inhibition % [9]: 95%
Inhibition % [10]: -84%
EC50 (human ROR1 on cells [11]): 0.128 nM
EC50 (human ROR1 on cells [12]): 0.774 nM
Inhibition % [13]: -54%
